Laboratory results from US20200392227A1 (LYVGEN BIOPHARMA, published 2020).
Residue numbers refer to the chain shown, from its start.

T1: human FcRIIB/C protein (MednaBio, E1034) (human, UniProt P31994 43-217, limits assumed)
T1 construct: Bought as FcRIIB/C; also called FcγRIIB; CD32B
T1 sequence (looked up): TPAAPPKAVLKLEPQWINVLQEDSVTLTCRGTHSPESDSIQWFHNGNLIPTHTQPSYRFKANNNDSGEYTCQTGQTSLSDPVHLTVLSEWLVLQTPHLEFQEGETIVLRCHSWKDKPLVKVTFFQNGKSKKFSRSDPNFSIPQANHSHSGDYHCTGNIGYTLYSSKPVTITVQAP

T2: human FcRIIA protein (MednaBio, E1033) (human, UniProt P12318 34-218, limits assumed)
T2 construct: Bought; also called FcγRIIA
T2 sequence (looked up): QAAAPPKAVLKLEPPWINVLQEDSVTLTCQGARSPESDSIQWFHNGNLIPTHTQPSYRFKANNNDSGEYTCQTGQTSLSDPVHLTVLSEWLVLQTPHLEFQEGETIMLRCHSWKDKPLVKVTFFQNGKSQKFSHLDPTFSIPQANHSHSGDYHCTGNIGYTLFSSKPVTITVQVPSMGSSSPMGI

T3: human FcγRIIC expressed on CHO cells (human, UniProt P31995 43-323)
T3 construct: whole, on cells
T3 sequence (looked up): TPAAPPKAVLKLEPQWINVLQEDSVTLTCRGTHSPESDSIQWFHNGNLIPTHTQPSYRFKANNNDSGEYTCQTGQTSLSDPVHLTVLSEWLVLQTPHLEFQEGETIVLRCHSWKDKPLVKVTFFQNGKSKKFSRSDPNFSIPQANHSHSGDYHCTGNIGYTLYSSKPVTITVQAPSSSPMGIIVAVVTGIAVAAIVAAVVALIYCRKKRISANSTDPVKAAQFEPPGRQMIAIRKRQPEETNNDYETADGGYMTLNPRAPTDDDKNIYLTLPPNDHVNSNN

B1: anti-CD137 IgG4 with Fc variant G4m1 (antibody)
heavy: EVQLVQSGAEVKKPGESLRISCKGSGYSFSTYWISWVRQMPGKGLEWMGKIYPGDSYTNYSPSFQGQVTISADKSISTAYLQWSSLKASDTAMYYCARGYGIFDYWGQGTLVTVSSASTKGPSVFPLAPCSRSTSESTAALGCLVKDYFPEPVTVSWNSGALTSGVHTFPAVLQSSGLYSLSSVVTVPSSSLGTKTYTCNVDHKPSNTKVDKRVESKYGPPCPPCPAPEFLSVFLFPPKPKDTLMISRTPEVTCVVVDVSQEDPEVQFNWYVDGVEVHNAKTKPREEQFNSTYRVVSVLTVLHQDWLNGKEYKCKVSNKGLPSSIEKTISKAKGQPREPQVYTLPPSQEEMTKNQVSLTCLVKGFYPSDIAVEWESNGQPENNYKTTPPVLDSDGSFFLYSRLTVDKSRWQEGNVFSCSVMHEALHNHYTQKSLSLSLGK
light: SYELTQPPSVSVSPGQTASITCSGDNIGDQYAHWYQQKPGQSPVLVIYQDKNRPSGIPERFSGSNSGNTATLTISGTQAMDEADYYCATYTGFGSLAVFGGGTKLTVLGQPKAAPSVTLFPPSSEELQANKATLVCLISDFYPGAVTVAWKADSSPVKAGVETTTPSKQSNNKYAASSYLSLTPEQWKSHRSYSCQVTHEGSTVEKTVAPTECS
notes: copies: 2 + 2
B2: anti-CD137 IgG4 with Fc variant G4m10 (antibody)
heavy: B1 heavy with F230V, L231S, L321F
light: B1 light
notes: copies: 2 + 2

Tests used:
[1] = target: T4, human FcRI protein (MednaBio, E1031) (human, UniProt P12314 16-288, limits assumed); test: BLI
T4 construct: Bought; loaded on anti-penta-HIS biosensors; also called FcγRI
Description: (§1) These IgG mutants were tested for binding to a panel of human Fc receptors (FcRs), including FcRn, using the Octet Red96 System (ForteBio, Model #Red96). Human FcR proteins were purchased commercially (FcRn, MednaBio, E1032; FcRI, MednaBio, E1031; FcRIIA, MednaBio, E1033; FcRIIB/C, MednaBio, E1034; FcRIIIA-F158, MednaBio, E1036; FcRIIIA-V158, MednaBio, E1035; FcRIIIB, MednaBio, E1037). All Fey receptor assays were performed at pH 7.2; all FcRn assays were performed at pH 6. The Fey receptors were loaded onto anti-penta-HIS1K (ForteBio, Cat #18-5122) biosensors at a concentration of 20 μg/mL. The loaded biosensors was then be dipped into an 8-point 1:3 dilution series of the test IgG molecules (including controls and the mutants described herein) in PBS with 0.1% BSA, 0.02% Tween-20 (pH 7.2) at a starting concentration of 300 nM. Kinetic analysis was performed using a 1:1 binding model and global fitting.

[2] = target: T1, human FcRIIB/C protein (MednaBio, E1034); test: BLI
Description: as §1

[3] = target: T5, human FcRIIIB protein (MednaBio, E1037) (human, UniProt O75015 17-200); test: BLI
T5 construct: Bought; also called FcγRIIIB; FcgRIIIB
Description: as §1

[4] = target: T2, human FcRIIA protein (MednaBio, E1033); test: BLI
Description: as §1

[5] = target: T6, human FcRn protein (MednaBio, E1032) (human, UniProt P55899 24-297; P61769 21-119); test: BLI
T6 construct: Bought; assays at pH 6
Description: as §1

[6] = target: T7, human FcRIIIA-V158 protein (MednaBio, E1035) (human, UniProt P08637 17-208); test: BLI
T7 construct: Bought; also called FcγRIIIA(V); FcgRIIIA(V)
Description: as §1

[7] = target: T8, human FcRIIIA-F158 protein (MednaBio, E1036) (human, UniProt P08637 17-208); test: BLI
T8 construct: Bought; also called FcγRIIIA(F)
Description: as §1

[8] = target: T3, human FcγRIIC expressed on CHO cells; test: FACS, CHO cells expressing FcγRIIC

T6 sequence (P55899 24-297 limits assumed, form in doubt, chain 1 of 2): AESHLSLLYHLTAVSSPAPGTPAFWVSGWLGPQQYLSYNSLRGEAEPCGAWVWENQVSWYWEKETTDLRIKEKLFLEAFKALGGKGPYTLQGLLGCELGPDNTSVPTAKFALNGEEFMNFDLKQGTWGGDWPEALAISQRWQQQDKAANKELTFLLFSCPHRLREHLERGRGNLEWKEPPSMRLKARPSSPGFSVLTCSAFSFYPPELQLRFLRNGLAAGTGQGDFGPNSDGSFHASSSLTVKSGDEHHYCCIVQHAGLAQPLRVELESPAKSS
T6 sequence (P61769 21-119 limits assumed, form in doubt, chain 2 of 2): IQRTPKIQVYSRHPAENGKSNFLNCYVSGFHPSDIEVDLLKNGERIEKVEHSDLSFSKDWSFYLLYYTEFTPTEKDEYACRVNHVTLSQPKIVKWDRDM
T4 sequence (P12314 16-288 limits assumed): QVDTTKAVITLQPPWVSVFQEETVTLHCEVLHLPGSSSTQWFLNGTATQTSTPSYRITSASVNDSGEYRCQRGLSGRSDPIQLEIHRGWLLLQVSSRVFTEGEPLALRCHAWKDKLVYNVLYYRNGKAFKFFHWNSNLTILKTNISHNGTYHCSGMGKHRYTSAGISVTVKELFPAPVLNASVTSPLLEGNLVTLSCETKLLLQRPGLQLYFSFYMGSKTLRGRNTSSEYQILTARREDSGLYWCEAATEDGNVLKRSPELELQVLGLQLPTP
T7 sequence (P08637 17-208 F176V): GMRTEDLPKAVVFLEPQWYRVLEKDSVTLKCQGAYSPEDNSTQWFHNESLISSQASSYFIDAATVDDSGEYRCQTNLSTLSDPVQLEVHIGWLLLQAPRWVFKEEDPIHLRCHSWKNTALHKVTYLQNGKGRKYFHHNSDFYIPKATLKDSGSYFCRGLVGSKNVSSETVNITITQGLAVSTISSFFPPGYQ
T8 sequence (P08637 17-208 limits assumed): as the sequence (P08637 17-208 F176V) above, with V160F counted along it
T5 sequence (O75015 17-200 limits assumed): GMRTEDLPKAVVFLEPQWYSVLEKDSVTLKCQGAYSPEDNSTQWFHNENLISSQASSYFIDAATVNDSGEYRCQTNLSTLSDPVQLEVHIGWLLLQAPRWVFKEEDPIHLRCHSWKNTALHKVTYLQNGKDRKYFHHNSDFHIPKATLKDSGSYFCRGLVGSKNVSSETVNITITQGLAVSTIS

Row | Binder | Kd [1] [nM] | koff [1] [s⁻¹] | kon [1] [M⁻¹ s⁻¹] | Kd [2] [nM] | koff [2] [s⁻¹] | kon [2] [M⁻¹ s⁻¹] | binding result [3] | Kd [4] [nM] | koff [4] [s⁻¹] | kon [4] [M⁻¹ s⁻¹] | Kd [5] [nM] | koff [5] [s⁻¹] | kon [5] [M⁻¹ s⁻¹] | binding result [6] | binding result [7] | binding result [1] | binding result [2] | binding result [8]
1 | B1 | 130 | 0.097 | 740000 | 250 | 0.11 | 420000 | no binding (tested: 300 nM) | 450 | 0.11 | 240000 | 19 | 0.013 | 690000 | no binding (tested: 300 nM) | no binding (tested: 300 nM) |  |  | 
2 | B2 |  |  |  |  |  |  | no binding (tested: 300 nM) | 83 | 0.037 | 450000 | 11 | 0.0055 | 510000 | no binding (tested: 300 nM) | no binding (tested: 300 nM) | no binding (tested: 300 nM) | no binding (tested: 300 nM) | no binding (tested: 10 ug/ml)
